Reference: FireProtDB (doi:10.1073/pnas.84.13.4441)

B1: Tryptophan synthase alpha chain, P0A877 (parent)
chain: MERYESLFAQLKERKEGAFVPFVTLGDPGIEQSLKIIDTLIEAGADALELGIPFSDPLADGPTIQNATLRAFAAGVTPAQCFEMLALIRQKHPTIPIGLLMYANLVFNKGIDEFYAQCEKVGVDSVLVADVPVEESAPFRQAALRHNVAPIFICPPNADDDLLRQIASYGRGYTYLLSRAGVTGAENRAALPLNHLVAKLKEYNAAPPLQGFGISAPDQVKAAIDAGAAGAISGSAIVKIIEQHINEPEKMLAALKVFVQPMKAATRS

Variants of: B1
Settings: Escherichia coli (strain K12), 25 °C, GdnHCl, CD, Potassium phosphate 20 mM, reversible: yes, structure 1WQ5, whole UniProt chain shown

MERYESLFAQLKERKEGAFVPFVTLGDPGIEQSLKIIDTLIEAGADALYLGIPFSDPLADGPTIQNATLRAFAAGVTPAQCFEMLALIRQKHPTIPIGLLMYANLVFNKGIDEFYAQCEKVGVDSVLVADVPVEESAPFRQAALRHNVAPIFICPPNADDDLLRQIASYGRGYTYLLSRAGVTGAENRAALPLNHLVAKLKEYNAAPPLQGFGISAPDQVKAAIDAGAAGAISGSAIVKIIEQHINEPEKMLAALKVFVQPMKAATRS [E49Y]
ddG of mutation (higher = less stable) (pH 7): 0.711 kJ/mol
unfolding free energy (pH 7): 75.3 kJ/mol
ddG of mutation (higher = less stable) (pH 9): -1.09 kJ/mol
unfolding free energy (pH 9): 76.3 kJ/mol

MERYESLFAQLKERKEGAFVPFVTLGDPGIEQSLKIIDTLIEAGADALNLGIPFSDPLADGPTIQNATLRAFAAGVTPAQCFEMLALIRQKHPTIPIGLLMYANLVFNKGIDEFYAQCEKVGVDSVLVADVPVEESAPFRQAALRHNVAPIFICPPNADDDLLRQIASYGRGYTYLLSRAGVTGAENRAALPLNHLVAKLKEYNAAPPLQGFGISAPDQVKAAIDAGAAGAISGSAIVKIIEQHINEPEKMLAALKVFVQPMKAATRS [E49N]
ddG of mutation (higher = less stable) (pH 9): -1.13 kJ/mol
unfolding free energy (pH 9): 76.3 kJ/mol

MERYESLFAQLKERKEGAFVPFVTLGDPGIEQSLKIIDTLIEAGADALTLGIPFSDPLADGPTIQNATLRAFAAGVTPAQCFEMLALIRQKHPTIPIGLLMYANLVFNKGIDEFYAQCEKVGVDSVLVADVPVEESAPFRQAALRHNVAPIFICPPNADDDLLRQIASYGRGYTYLLSRAGVTGAENRAALPLNHLVAKLKEYNAAPPLQGFGISAPDQVKAAIDAGAAGAISGSAIVKIIEQHINEPEKMLAALKVFVQPMKAATRS [E49T]
ddG of mutation (higher = less stable) (pH 7): 2.59 kJ/mol
unfolding free energy (pH 7): 73.4 kJ/mol
ddG of mutation (higher = less stable) (pH 9): 1.09 kJ/mol
unfolding free energy (pH 9): 74.1 kJ/mol

MERYESLFAQLKERKEGAFVPFVTLGDPGIEQSLKIIDTLIEAGADALVLGIPFSDPLADGPTIQNATLRAFAAGVTPAQCFEMLALIRQKHPTIPIGLLMYANLVFNKGIDEFYAQCEKVGVDSVLVADVPVEESAPFRQAALRHNVAPIFICPPNADDDLLRQIASYGRGYTYLLSRAGVTGAENRAALPLNHLVAKLKEYNAAPPLQGFGISAPDQVKAAIDAGAAGAISGSAIVKIIEQHINEPEKMLAALKVFVQPMKAATRS [E49V]
ddG of mutation (higher = less stable) (pH 7): -0.586 kJ/mol
unfolding free energy (pH 7): 76.6 kJ/mol

MERYESLFAQLKERKEGAFVPFVTLGDPGIEQSLKIIDTLIEAGADALKLGIPFSDPLADGPTIQNATLRAFAAGVTPAQCFEMLALIRQKHPTIPIGLLMYANLVFNKGIDEFYAQCEKVGVDSVLVADVPVEESAPFRQAALRHNVAPIFICPPNADDDLLRQIASYGRGYTYLLSRAGVTGAENRAALPLNHLVAKLKEYNAAPPLQGFGISAPDQVKAAIDAGAAGAISGSAIVKIIEQHINEPEKMLAALKVFVQPMKAATRS [E49K]
ddG of mutation (higher = less stable) (pH 7): -0.837 kJ/mol
unfolding free energy (pH 7): 75.1 kJ/mol
ddG of mutation (higher = less stable) (pH 9): -1.63 kJ/mol
unfolding free energy (pH 9): 76.8 kJ/mol

MERYESLFAQLKERKEGAFVPFVTLGDPGIEQSLKIIDTLIEAGADALFLGIPFSDPLADGPTIQNATLRAFAAGVTPAQCFEMLALIRQKHPTIPIGLLMYANLVFNKGIDEFYAQCEKVGVDSVLVADVPVEESAPFRQAALRHNVAPIFICPPNADDDLLRQIASYGRGYTYLLSRAGVTGAENRAALPLNHLVAKLKEYNAAPPLQGFGISAPDQVKAAIDAGAAGAISGSAIVKIIEQHINEPEKMLAALKVFVQPMKAATRS [E49F]
ddG of mutation (higher = less stable) (pH 7): 3.6 kJ/mol
unfolding free energy (pH 7): 72.4 kJ/mol
